{
  "source": "patent US20170355766A1",
  "about": "(Xencor, published 2017)",
  "binders": {"B1": {"name": "G236V (antibody, human IgG1, kappa)", "heavy": "not shown", "light": "DIVMTQSPATLSLSPGERATLSCRSSKSLQNVNGNTYLYWFQQKPGQSPQLLIYRMSNLNSGVPDRFSGSGSGTEFTLTISSLEPEDFAVYYCMQHLEYPITFGAGTKLEIKRTVAAPSVFIFPPSDEQLKSGTASVVCLLNNFYPREAKVQWKVDNALQSGNSQESVTEQDSKDSTYSLSSTLTLSKADYEKHKVYACEVTHQGLSSPVTKSFNRGEC", "notes": "HuAM4G7 IgG1 Fc variant"}, "B2": {"name": "L235P (antibody, human IgG1, kappa)", "heavy": "not shown", "light": "B1 light", "notes": "HuAM4G7 IgG1 Fc variant"}, "B3": {"name": "L235N (antibody, human IgG1, kappa)", "heavy": "not shown", "light": "B1 light", "notes": "HuAM4G7 IgG1 Fc variant"}, "B4": {"name": "H268Q (antibody, human IgG1, kappa)", "heavy": "not shown", "light": "B1 light", "notes": "HuAM4G7 IgG1 Fc variant"}, "B5": {"name": "S267D/H268E (antibody, human IgG1, kappa)", "heavy": "not shown", "light": "B1 light", "notes": "HuAM4G7 IgG1 Fc variant"}, "B6": {"name": "P331S (antibody, human IgG1, kappa)", "heavy": "not shown", "light": "B1 light", "notes": "HuAM4G7 IgG1 Fc variant"}, "B7": {"name": "S239D/L328Y/I332E (antibody, human IgG1, kappa)", "heavy": "EVQLVESGGGLVKPGGSLKLSCAASGYTFTSYVMHWVRQAPGKGLEWIGYINPYNDGTKYNEKFQGRVTISSDKSISTAYMELSSLRSEDTAMYYCARGTYYYGTRVFDYWGQGTLVTVSSASTKGPSVFPLAPSSKSTSGGTAALGCLVKDYFPEPVTVSWNSGALTSGVHTFPAVLQSSGLYSLSSVVTVPSSSLGTQTYICNVNHKPSNTKVDKKVEPKSCDKTHTCPPCPAPELLGGPDVFLFPPKPKDTLMISRTPEVTCVVVDVSHEDPEVKFNWYVDGVEVHNAKTKPREEQYNSTYRVVSVLTVLHQDWLNGKEYKCKVSNKAYPAPEEKTISKAKGQPREPQVYTLPPSREEMTKNQVSLTCLVKGFYPSDIAVEWESNGQPENNYKTTPPVLDSDGSFFLYSKLTVDKSRWQQGNVFSCSVMHEALHNHYTQKSLSLSPGK", "light": "B1 light", "notes": "HuAM4G7 IgG1 Fc variant"}, "B8": {"name": "S267E/L328Q (antibody, human IgG1, kappa)", "heavy": "not shown", "light": "B1 light", "notes": "HuAM4G7 IgG1 Fc variant"}, "B9": {"name": "S239D/S267A/L328Y (antibody, human IgG1, kappa)", "heavy": "B7 heavy with S271A, E336I", "light": "B1 light", "notes": "HuAM4G7 IgG1 Fc variant"}, "B10": {"name": "S267D/A327D (antibody, human IgG1, kappa)", "heavy": "not shown", "light": "B1 light", "notes": "HuAM4G7 IgG1 Fc variant"}, "B11": {"name": "S267D/H268D (antibody, human IgG1, kappa)", "heavy": "not shown", "light": "B1 light", "notes": "HuAM4G7 IgG1 Fc variant"}, "B12": {"name": "S239D/L328Y (antibody, human IgG1, kappa)", "heavy": "not shown", "light": "B1 light", "notes": "HuAM4G7 IgG1 Fc variant"}, "B13": {"name": "S239D/S267E/I332E (antibody, human IgG1, kappa)", "heavy": "B7 heavy with S271E, Y332L", "light": "B1 light", "notes": "HuAM4G7 IgG1 Fc variant"}, "B14": {"name": "S239D/H268D/L328Y/I332E (antibody, human IgG1, kappa)", "heavy": "B7 heavy with H272D", "light": "B1 light", "notes": "HuAM4G7 IgG1 Fc variant"}, "B15": {"name": "S239D/H268E/L328Y (antibody, human IgG1, kappa)", "heavy": "B7 heavy with H272E, E336I", "light": "B1 light", "notes": "HuAM4G7 IgG1 Fc variant"}, "B16": {"name": "S239D/H268D/L328W/I332E (antibody, human IgG1, kappa)", "heavy": "B7 heavy with H272D, Y332W", "light": "B1 light", "notes": "HuAM4G7 IgG1 Fc variant"}, "B17": {"name": "S239D/K326D/L328Y (antibody, human IgG1, kappa)", "heavy": "B7 heavy with K330D, E336I", "light": "B1 light", "notes": "HuAM4G7 IgG1 Fc variant"}, "B18": {"name": "S239D/A327D/L328Y (antibody, human IgG1, kappa)", "heavy": "B7 heavy with A331D, E336I", "light": "B1 light", "notes": "HuAM4G7 IgG1 Fc variant"}, "B19": {"name": "S239D/H268D/L328F/I332E (antibody, human IgG1, kappa)", "heavy": "B7 heavy with H272D, Y332F", "light": "B1 light", "notes": "HuAM4G7 IgG1 Fc variant"}, "B20": {"name": "S239D/L328F/I332E (antibody, human IgG1, kappa)", "heavy": "B7 heavy with Y332F", "light": "B1 light", "notes": "HuAM4G7 IgG1 Fc variant"}, "B21": {"name": "S267D/A327E (antibody, human IgG1, kappa)", "heavy": "not shown", "light": "B1 light", "notes": "HuAM4G7 IgG1 Fc variant"}, "B22": {"name": "S239D/H268D/L328W (antibody, human IgG1, kappa)", "heavy": "B7 heavy with H272D, Y332W, E336I", "light": "B1 light", "notes": "HuAM4G7 IgG1 Fc variant"}, "B23": {"name": "L328E (antibody, human IgG1, kappa)", "heavy": "not shown", "light": "B1 light", "notes": "HuAM4G7 IgG1 Fc variant"}, "B24": {"name": "S267A/L328Y/I332E (antibody, human IgG1, kappa)", "heavy": "B7 heavy with D243S, S271A", "light": "B1 light", "notes": "HuAM4G7 IgG1 Fc variant"}, "B25": {"name": "L328Y/I332E (antibody, human IgG1, kappa)", "heavy": "not shown", "light": "B1 light", "notes": "HuAM4G7 IgG1 Fc variant"}, "B26": {"name": "S239D/H268D (antibody, human IgG1, kappa)", "heavy": "not shown", "light": "B1 light", "notes": "HuAM4G7 IgG1 Fc variant"}, "B27": {"name": "L235Y/S267D (antibody, human IgG1, kappa)", "heavy": "not shown", "light": "B1 light", "notes": "HuAM4G7 IgG1 Fc variant"}, "B28": {"name": "S267A/H268D/L328Y (antibody, human IgG1, kappa)", "heavy": "B7 heavy with D243S, S271A, H272D, E336I", "light": "B1 light", "notes": "HuAM4G7 IgG1 Fc variant"}, "B29": {"name": "S267E/H268D (antibody, human IgG1, kappa)", "heavy": "not shown", "light": "B1 light", "notes": "HuAM4G7 IgG1 Fc variant"}, "B30": {"name": "S239D/H268D/L328Y (antibody, human IgG1, kappa)", "heavy": "B7 heavy with H272D, E336I", "light": "B1 light", "notes": "HuAM4G7 IgG1 Fc variant"}, "B31": {"name": "S239D/H268D/L328F (antibody, human IgG1, kappa)", "heavy": "B7 heavy with H272D, Y332F, E336I", "light": "B1 light", "notes": "HuAM4G7 IgG1 Fc variant"}, "B32": {"name": "S239D/S267D (antibody, human IgG1, kappa)", "heavy": "not shown", "light": "B1 light", "notes": "HuAM4G7 IgG1 Fc variant"}},
  "note": "Numbering of substitutions follows the chain as printed. In names and notes the source's numbering stands.",
  "data": [
    {"biological_target": "T1, FcγRIIaR (human, UniProt P12318)", "T1 construct": "recombinant receptor protein with 6xHis and GST tags; also called R131 FcγRIIa", "T1 sequence (receptor, looked up)": "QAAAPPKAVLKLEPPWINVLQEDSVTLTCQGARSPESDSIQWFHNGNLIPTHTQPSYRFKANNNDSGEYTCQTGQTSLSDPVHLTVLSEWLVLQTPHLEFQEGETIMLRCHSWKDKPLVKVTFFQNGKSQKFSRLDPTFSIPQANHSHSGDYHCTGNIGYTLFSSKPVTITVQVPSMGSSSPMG", "test": "SPR (Biacore)", "method": "(§1) Variants were screened for receptor affinity using Biacore™ technology, also referred to as Biacore herein, a surface plasmon resonance (SPR) based technology for studying biomolecular interactions in real time. SPR measurements were performed using a Biacore 3000 instrument (Biacore, Piscataway, N.J.). A protein A/G (Pierce Biotechnology) CM5 biosensor chip (Biacore) was generated using a standard primary amine coupling protocol. All measurements were performed using HBS-EP buffer (10 mM HEPES pH 7.4, 0.15 M NaCl, 3 mM EDTA, 0.005% vol/vol surfactant P20, Biacore). Antibodies at 20 nM or 50 nM in HBS-EP buffer were immobilized on the protein A/G surface and FcγRs were injected. After each cycle, the surface was regenerated by injecting glycine buffer (10 mM, pH 1.5). Data were processed by zeroing time and response before the injection of FcγR and by subtracting appropriate nonspecific signals (response of reference channel and injection of running buffer). Kinetic analyses were performed by global fitting of binding data with a 1:1 Langmuir binding model using BIAevaluation software (Biacore).", "units": {"Fold FcγRIIaR": "fold"}, "values": [
      {"binder": "B1", "Fold FcγRIIaR": 0.106},
      {"binder": "B2", "Fold FcγRIIaR": 0.122},
      {"binder": "B3", "Fold FcγRIIaR": 0.0356},
      {"binder": "B4", "Fold FcγRIIaR": 1.58}
    ]},
    {"biological_target": "T2, human FcγRIIb receptor protein (R&D Systems) (human, UniProt P31994 46-217)", "T2 construct": "Analyte injected over antibodies captured on a protein A/G chip (Biacore); also called CD32b", "T2 sequence (looked up)": "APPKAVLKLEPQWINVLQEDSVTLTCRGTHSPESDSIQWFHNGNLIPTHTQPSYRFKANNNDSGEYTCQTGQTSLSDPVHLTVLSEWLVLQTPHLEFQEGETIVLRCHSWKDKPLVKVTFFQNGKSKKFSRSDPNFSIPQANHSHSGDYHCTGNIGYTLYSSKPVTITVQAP", "test": "SPR (Biacore)", "method": "as §1", "units": {"Fold FcγRIIb": "fold"}, "values": [
      {"binder": "B5", "Fold FcγRIIb": 17.8},
      {"binder": "B6", "Fold FcγRIIb": 0.0372},
      {"binder": "B7", "Fold FcγRIIb": 7.41},
      {"binder": "B8", "Fold FcγRIIb": 12.1},
      {"binder": "B9", "Fold FcγRIIb": 19.8},
      {"binder": "B10", "Fold FcγRIIb": 6.89},
      {"binder": "B11", "Fold FcγRIIb": 14.2},
      {"binder": "B12", "Fold FcγRIIb": 5.56},
      {"binder": "B13", "Fold FcγRIIb": 124},
      {"binder": "B14", "Fold FcγRIIb": 54.1},
      {"binder": "B15", "Fold FcγRIIb": 21.7},
      {"binder": "B16", "Fold FcγRIIb": 27.8},
      {"binder": "B17", "Fold FcγRIIb": 13},
      {"binder": "B18", "Fold FcγRIIb": 11.9},
      {"binder": "B19", "Fold FcγRIIb": 53.2},
      {"binder": "B20", "Fold FcγRIIb": 8.34},
      {"binder": "B21", "Fold FcγRIIb": 12.1},
      {"binder": "B22", "Fold FcγRIIb": 51.1},
      {"binder": "B23", "binding result": "no binding"},
      {"binder": "B24", "Fold FcγRIIb": 13.5},
      {"binder": "B25", "Fold FcγRIIb": 2.08},
      {"binder": "B26", "Fold FcγRIIb": 14.4},
      {"binder": "B27", "Fold FcγRIIb": 15.9},
      {"binder": "B28", "Fold FcγRIIb": 10.7},
      {"binder": "B29", "Fold FcγRIIb": 33.3},
      {"binder": "B30", "Fold FcγRIIb": 24.4},
      {"binder": "B31", "Fold FcγRIIb": 8.79},
      {"binder": "B32", "Fold FcγRIIb": 22.3}
    ]}
  ]
}
